Source: the supplement of paper PMC10567573

B1: CRYL1 (parent)
chain: RNALENIRKEMKLLEQAGSLKGSL

Variants of: B1
Assay: protein stability index of a GFP-peptide fusion (GPS, HEK-293T) (PSI 1-6); higher = more stable
Conditions: c terminus: a fixed tail appended
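Also: lentivirally expressed fusions sorted by FACS into six bins by GFP to DsRed ratio, PSI derived from sequencing read proportions per bin multiplied by bin number.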

In order of rising protein stability index:
1. RNALENIRKYMKLLEQAGSLKGSL [E10Y]  1.08
2. RNALENIRKMMKLLEQAGSLKGSL [E10M]  1.23
3. RNALENIRKFMKLLEQAGSLKGSL [E10F]  1.61
4. RNALENILKEMKLLEQAGSLKGSL [R8L]  1.65
5. RNALENIRKCMKLLEQAGSLKGSL [E10C]  1.83
6. RNALENIIKEMKLLEQAGSLKGSL [R8I]  1.84
7. RNALENIRKRMKLLEQAGSLKGSL [E10R]  1.87
8. RNALENIRKIMKLLEQAGSLKGSL [E10I]  1.92
9. RNALENIFKEMKLLEQAGSLKGSL [R8F]  2.07
10. RNALENCRKEMKLLEQAGSLKGSL [I7C]  2.3
11. RNALENIWKEMKLLEQAGSLKGSL [R8W]  2.3
12. RNALENIRKKMKLLEQAGSLKGSL [E10K]  2.31
13. RNALENIRKSMKLLEQAGSLKGSL [E10S]  2.33
14. RWALENIRKEMKLLEQAGSLKGSL [N2W]  2.34
15. RNALENIRKAMKLLEQAGSLKGSL [E10A]  2.36
16. RNALENFRKEMKLLEQAGSLKGSL [I7F]  2.37
17. RNALENIRKTMKLLEQAGSLKGSL [E10T]  2.39
18. RNALENIRKLMKLLEQAGSLKGSL [E10L]  2.44
19. RNALENIYKEMKLLEQAGSLKGSL [R8Y]  2.45
20. FNALENIRKEMKLLEQAGSLKGSL [R1F]  2.46
21. RNALENLRKEMKLLEQAGSLKGSL [I7L]  2.48
22. RYALENIRKEMKLLEQAGSLKGSL [N2Y]  2.48
23. RNALENIEKEMKLLEQAGSLKGSL [R8E]  2.58
24. RNALENIRKQMKLLEQAGSLKGSL [E10Q]  2.59
25. RNALENIRKVMKLLEQAGSLKGSL [E10V]  2.63
26. RNALENIRKHMKLLEQAGSLKGSL [E10H]  2.68
27. INALENIRKEMKLLEQAGSLKGSL [R1I]  2.69
28. RIALENIRKEMKLLEQAGSLKGSL [N2I]  2.69
29. RCALENIRKEMKLLEQAGSLKGSL [N2C]  2.72
30. RNALENIRKEKKLLEQAGSLKGSL [M11K]  2.79
31. RKALENIRKEMKLLEQAGSLKGSL [N2K]  2.83
32. RNALENICKEMKLLEQAGSLKGSL [R8C]  2.84
33. RSALENIRKEMKLLEQAGSLKGSL [N2S]  2.85
34. ANALENIRKEMKLLEQAGSLKGSL [R1A]  2.86
35. CNALENIRKEMKLLEQAGSLKGSL [R1C]  2.87
36. RNALENIRKGMKLLEQAGSLKGSL [E10G]  2.87
37. RFALENIRKEMKLLEQAGSLKGSL [N2F]  2.87
38. RLALENIRKEMKLLEQAGSLKGSL [N2L]  2.88
39. RNALENIRKWMKLLEQAGSLKGSL [E10W]  2.89
40. RNALENIRKNMKLLEQAGSLKGSL [E10N]  2.89
41. RNALENIMKEMKLLEQAGSLKGSL [R8M]  2.92
42. RTALENIRKEMKLLEQAGSLKGSL [N2T]  2.92
43. RNALENIKKEMKLLEQAGSLKGSL [R8K]  3.04
44. YNALENIRKEMKLLEQAGSLKGSL [R1Y]  3.04
45. RMALENIRKEMKLLEQAGSLKGSL [N2M]  3.05
46. RNALENIRKPMKLLEQAGSLKGSL [E10P]  3.06
47. RAALENIRKEMKLLEQAGSLKGSL [N2A]  3.1
48. MNALENIRKEMKLLEQAGSLKGSL [R1M]  3.11
49. RNALENIRKEFKLLEQAGSLKGSL [M11F]  3.13
50. RNALENWRKEMKLLEQAGSLKGSL [I7W]  3.15
51. LNALENIRKEMKLLEQAGSLKGSL [R1L]  3.21
52. RNALENIRKEIKLLEQAGSLKGSL [M11I]  3.24
53. RNALENIVKEMKLLEQAGSLKGSL [R8V]  3.25
54. RNALENIRKDMKLLEQAGSLKGSL [E10D]  3.33
55. WNALENIRKEMKLLEQAGSLKGSL [R1W]  3.34
56. RNALENIRKECKLLEQAGSLKGSL [M11C]  3.37
57. PNALENIRKEMKLLEQAGSLKGSL [R1P]  3.37
58. RQALENIRKEMKLLEQAGSLKGSL [N2Q]  3.39
59. RNALENIRKEAKLLEQAGSLKGSL [M11A]  3.4
60. HNALENIRKEMKLLEQAGSLKGSL [R1H]  3.47
61. SNALENIRKEMKLLEQAGSLKGSL [R1S]  3.48
62. RRALENIRKEMKLLEQAGSLKGSL [N2R]  3.49
63. RHALENIRKEMKLLEQAGSLKGSL [N2H]  3.49
64. RDALENIRKEMKLLEQAGSLKGSL [N2D]  3.52
65. RNALENVRKEMKLLEQAGSLKGSL [I7V]  3.53
66. VNALENIRKEMKLLEQAGSLKGSL [R1V]  3.53
67. RGALENIRKEMKLLEQAGSLKGSL [N2G]  3.57
68. QNALENIRKEMKLLEQAGSLKGSL [R1Q]  3.65
69. ENALENIRKEMKLLEQAGSLKGSL [R1E]  3.65
70. REALENIRKEMKLLEQAGSLKGSL [N2E]  3.65
71. RNALENYRKEMKLLEQAGSLKGSL [I7Y]  3.67
72. DNALENIRKEMKLLEQAGSLKGSL [R1D]  3.7
73. RNALENIAKEMKLLEQAGSLKGSL [R8A]  3.72
74. RNALENIGKEMKLLEQAGSLKGSL [R8G]  3.77
75. KNALENIRKEMKLLEQAGSLKGSL [R1K]  3.77
76. GNALENIRKEMKLLEQAGSLKGSL [R1G]  3.82
77. NNALENIRKEMKLLEQAGSLKGSL [R1N]  3.83
78. RNALENISKEMKLLEQAGSLKGSL [R8S]  3.87
79. TNALENIRKEMKLLEQAGSLKGSL [R1T]  3.87
80. RNALENTRKEMKLLEQAGSLKGSL [I7T]  3.9
81. RNALENIQKEMKLLEQAGSLKGSL [R8Q]  3.92
82. RNALENIRKEGKLLEQAGSLKGSL [M11G]  4
83. RNALENERKEMKLLEQAGSLKGSL [I7E]  4.02
84. RNALENIHKEMKLLEQAGSLKGSL [R8H]  4.05
85. RPALENIRKEMKLLEQAGSLKGSL [N2P]  4.16
86. RNALENINKEMKLLEQAGSLKGSL [R8N]  4.19
87. RNALENITKEMKLLEQAGSLKGSL [R8T]  4.19
88. RNALENPRKEMKLLEQAGSLKGSL [I7P]  4.22
89. RNALENIPKEMKLLEQAGSLKGSL [R8P]  4.29
90. RNALENIRKEDKLLEQAGSLKGSL [M11D]  4.34
91. RNALENARKEMKLLEQAGSLKGSL [I7A]  4.35
92. RNALENIRKEHKLLEQAGSLKGSL [M11H]  4.45
93. RNALENIRKEEKLLEQAGSLKGSL [M11E]  4.45
94. RNALENIDKEMKLLEQAGSLKGSL [R8D]  4.49
